In the DeepSol protein solubility set:

Experiment: soluble on expression in E. coli; label from the status in PepcDB or PDB records

Row | Sequence | soluble on expression in E. coli
1 | MGSDKIHHHHHHMIPFNKPHLTGKEVHYIYEAVHSGKISGNGIFTKKCHDFFTSTYGFTKTLMTSSCTDALEMSSLLMDIQPGDEIILPTFTFVSTANAFVLRGAKLVFVDSLATEPNMNVELIEGLITSKTKAIVVVHYAGVACDMDVVMNIAKKYQLFVVEDAAQAISSYYKDKPLGGIGDFGAFSFHETKNIISGEGGLLAINNSDYCNRSEIIWEKGTNRSAFFRGETDKYGWVDVGSSFLPSEIISAFLYAQLENVAEIQAKRLEIWNTYYNTLSPLAEHKKLRLPYIPAYATNNAHMFYVICNSLEERTALIDYLKAHNILAVFHYLSLHKSPYFSDKHDGRSMDYADQYAETLVRLPLFYDLSTEDQEFICTKILSFYSEKI | not soluble
2 | MHHHHHHSSGVDLGTENLYFQSMRPFLIGVSGGTASGKSTVCEKIMELLGQNEVEQRQRKVVILSQDRFYKVLTAEQKAKALKGQYNFDHPDAFDNDLMHRTLKNIVEGKTVEVPTYDFVTHSRLPETTVVYPADVVLFEGILVFYSQEIRDMFHLRLFVDTDSDVRLSRRVLRDVRRGRDLEQILTQYTTFVKPAFEEFCLPTKKYADVIIPRGVDNMVAINLIVQHIQDILNGDICKWHRGGS | soluble
3 | SLAVLGLGYAGLFKSQMESLEEYEAKETELKNTYKQKSIDAASLNNLRDELASIRSAFDIMLKQLPTDAEIPNLVQELHQAGSSNGLRLDSVMPQPPVDDGPIKRLPYSISITGNYEQISQFTRDVGSLSRIITLESLKIAQSPENGGNPDGKSSILNLSAIATTYQAKSVEELAAEAAQNAEQK | soluble
4 | VAFLCQLFGVYRSSYQAWHHRVKKPDTERIRLKSLVREAFNEGKGSAGARTIAAMVTAKGIPLGRWRAGKLMAELGLVSRQQPKHRYSHQEQEHLDIPNDLDRQFTVTEPNQVWCGDVTYIWTGKCWAYLAVVLDLFARKPIGWAMSFSADSELTKRALEMAFESRRKPQGVMFHRDQGSHYTRKAFRRLLWRYGIKQSLSRRGNCWDNSPMERFFRSLKSEWVPEEGYSDFRKAFRSITNYIQGEPRQSRDFPYVFITFLYPASIRRANGAGAG | soluble
5 | MTTEQEFEKVELTADGGVIKTILKKGDEGEENIPKKGNEVTVHYVGKLESTGKVFDSSFDRNVPFKFHLEQGEVIKGWDICVSSMRKNEKCLVRIESMYGYGDEGCGESIPGNSVLLFEIELLSFRELE | soluble
6 | MSFVVANTEFVSGAAGNLARLGSMISAANSAAAAQTTAVAAAGADEVSAAVAALFGAHGQTYQVLSAQAAAFHSQFVQALSGGAQAYAAAEATNFGPLQPLFDVINAPTLALLNRPLIGNGADGTAANPNGQAGGLLIGNGGNGFSPAAGPGGNGGAAGLLGHGGNGGVGALGANGGAGGTGGWLFGNGGAGGNSGGGGGAGGIGGSAVLFGAGGAGGISPNGMGAGGSGGNGGLFFGNGGAGASSFLGGGGAGGRAFLFGDGGAGGAALSAGSAGRGGDAGFFYGNGGAGGSGAGGASSAHGGAGGQAGLFGNGGEGGDGGALGGNGGNGGNAQLIGNGGDGGDGGGAGAPGLGGRGGLLLGLPGANGT | not soluble
7 | MAGNHTNRPGLRKTNKKGATKGSGAVRRRGLKGKGPTPKAEDREYHAAYKKKMERKRRDQGRHVKEETSELVVGRNPVVECLHAKVPATT | not soluble
8 | MSLILRRVFIAIGCVLFSPLSQANSSLGEVNIELRGNVVDFTCAVVAGDSNKSVNLGTWPTKQLHAAGDATQPVAFSLKLEGCPPGSASITFSGTPAPGTALLALADTAMAQKLAIEIRDGDQRRLPLEQASKAVDIDNNGNATLKFYANYIALADGVQPGLANADATFLINYNEGGSHHHHHH | soluble
9 | EVLVTGYQTLSKERSTGAFSKVSTEKLELKRMDNLSSMLEGQVAGYVNGQIRGVTTMNAVANPMVVIDGFPVENTTLDRIGQTTENMPDLNPEDIESVTVLKDAAAASIYGARAANGVIVITTKKAK | not soluble
10 | MKTIEIFDPAMCCPTGLCGTNINPELMRIAVVIETLKRQGVVVTRHNLRDEPQVYVSNKTVNQYLQKNGAEALPITLVDGEIAVSKDYPTTKQMSEWTGINLD | soluble
11 | GSEELLDLFNRQVTQEFTASQVYLSASIWFDQNDWEGMAAYMLAESAEEREHGLGFVDFANKRNIPIELQAVPAPVSCAEWSSPEDVWQSILELEQANTRSLLNLAEAASTCHDFAVMAFLNPFHLQQVNEEDKIGSILAKVTDENRTPGLLRSLDVVSFLGPCLFRS | soluble
12 | RSVRVLVDMDGVLADFEAGLLRGFRRRFPEEPHVPLEQRRGFLAREQYRALRPDLADKVASVYEAPGFFLDLEPIPGALDAVREMNDLPDTQVFICTSPLLKYHHCVGEKYRWVEQHLGPQFVERIILTRDKTVVLGDLLIDDKDTVRGQEETPSWEHILFTCCHNRHLVLPPTRRRLLSWSDNWREILDSKR | soluble
13 | MFPQADEPERDTLPGQEEDPLPTGQEQPSITPIAGTEAQYIDIAEWYDSDSILYITDEGENSLVYIYNLLTGEKKSLFSSDDAVIKVTANSTHSQFAIQTVTQAGDAPVSIIDSQGELLMKLEDFGEDFSIFWSPYEEDKLIAVAYLPDWEQDLYLIDTSDKQVEMLDLDQSFVQWLDERTIVYLDWNGDSEGYYAPLYTFDLETEEVVLLHEEAIATLGFGDHVTLIIERPEQGAEVTTYQFWNGSEQLAEWSVPILRTYSEQWWIPFYDFDLNKRLFYAYKPNRTGDYFEYDGGFSFIAFDVDHGEETVLFESDEHVPFRLSPTGQRALFGPRLETVMDLPTGESNSLIE | not soluble
14 | MTIAQEPTALNFECETGNYHTFCPISCVAWLYQKIEDSFFLVIGTKTCGYFLQNAMGVMIFAEPRYAMAELEEGDISAQLNDYAELKRLCEQIKRDRNPSVIVWIGTCTTEIIKMDLEGLAPKLEGEIGIPIVVARANGLDYAFTQGEDTVLAAMAHRCPDKAPVAEAEKNLEHHHHHH | soluble
15 | MSLTAYKRVLLKLSGESLMGAQQYGIDPNRLADYASDIKEACAMGVQIGIVIGGGNIFRGVSGAAKGFDRVKGDQMGMLATVINSLALSSALEGVGVKTKVLTAVRMEPIGEFYNKWHAIELLEQGYVTIFSCGTGNPFFTTDTGSSLRGIEIEADAMLKGTRVDGIYTADPEKDPSATKFDRITYDEIYARGLKVMDLTATAMCMENNLPIVVFDMDTPGNLLKVLRGEKIGTYVSNTSAEGHHHHHH | soluble
16 | MGSDKIHHHHHHMVDEILKLKKEKGYIILAHNYQIPELQDIADFVGDSLQLARKAMELSEKKILFLGVDFMAELVKILNPDKKVIVPDRSATCPMANRLTPEIIREYREKFPDAPVVLYVNSTSECKTLADVICTSANAVEVVKKLDSSVVIFGPDRNLGEYVAEKTGKKVITIPENGHCPVHQFNAESIDAVRKKYPDAKVIVHPECPKPVRDKADYVGSTGQMEKIPEKDPSRIFVIGTEIGMIHKLKKKFPDREFVPLEMAVCVNMKKNTLENTLHALQTESFEVILPKEVIEKAKKPILRMFELMG | not soluble
17 | MDISMKQSKRNLWWSVCAGLLFCSWGCSSQVSDKPVTLETLLDEMVSVEEQALYPVPSYTCRQESSYDRASVSPDSAGWFANSDGFGIKRVDTVAGRIEKVMFDEVGPGAITRIWITTIDKRGTWRFYFDGSDQPGWIIPAYDLMRINVPGLGKGMLQAHTSYTPEGKGGNTLFLPIPYARGCKVTFEDEPGVNPTPKYYHINFRKYPEGTQVETFSKEVVERAAQKIAEVDNRLLQPVAGRKGEILREEKSILPSDSLVIPLPAGENAVYEVKFNIRIDNPEQYAQLMRELVFSAGFDGKQTVWVPLSDFSGGGMGAPKVDSWYLTSDGKGNISSRWLMPYQKDGVLKVLNLSSRSVAATMEVNVAPLKWNKDRSLYFYASWRQENGIYIHDKPEEADQCVEWNFATLKGRGVYKGDLLSLYNHAPLWYGEGDEKIWVDDDTFPSHFGTGTEDYYNSSWAPVVPFYTPFGGAPRADLESSHGYNAFYRTRHLDGIPFNKSFKFDIEMLGWKRGEADYATTIYWYGDPEAQVFGTSGIEEARRQLLPAVEASADLEHHHHHH | soluble
18 | GSQPAKKTYTWNTKEEAKQAFKELLKEKRVPSNASWEQAMKMIINDPRYSALAKLSEKKQAFNAYKVQTEK | soluble
19 | MGSDKIHHHHHHMVRLSEAEVQNPKLGEYQCLADLNLFDSPECTRLATQSASGRHLWVTSNHQNLAVEVYLCEDDYPGWLSLSDFDSLQPATVPYQAATFSESEIKKLLAEVIAFTQKAMQQSNYYLWGGTVGPNYDCSGLMQAAFASVGIWLPRDAYQQEGFTQPITIAELVAGDLVFFGTSQKATHVGLYLADGYYIHSSGKDQGRDGIGIDILSEQGDAVSLSYYQQLRGAGRVFKSYEPQRR | soluble
20 | MGSDKIHHHHHHMKIGIVTFHRALNYGAVLQACAMRRIFSDHGEVEMVDYWPDYHSSHYSLLDTRFLNKNQSLSSRVRLLKSAIKRIILLPVRLKRNKKFLSFIDSNIVKVSNAPIKLANKIPDYFDVVVYGSDQIWRVYDFDNYPRPDMVYMGAGVLDGTRKIAFAASMGDVNVDTLCDDSVIKALKNFEHINVREQALSESLLKHSGLSSCVVLDPTFLVSSDVWKRMAETIPRNRKDNKYALFYSLIPSEESIRIAKNIAEEKGVELVEINGFETIGGLFNKSVAQSAGPLDFLELIMNAEFIVSTSFHGVVFSIIFEKQFCACGMKGHSERVRSLLSKLSIEDRLIDTVEQLESLGEIDYKEVTKLLAREIEHSKELLEYSLFE | not soluble
21 | MKAIAGLTVNIKQGEFVYVVGPSGAGKSTFIKMMYREEKPSTGSINVNGLVIETLAERDVPYFRRQLGVIFQDFKLLPKLTVYENVAFALEVIEEEPDAIRERVTEVLGLVGLEDRADALPSELSGGEQQRVAIARAIVNKPKVVIADEPTGNLDIETALDIMKIFTRINERGTTIVMATHNADIVNTIRHRVIAIEGGKIVRDEIEGGYGYEG | not soluble
22 | SMVSPEEAVKWGESFDKLLSHRDGLEAFTRFLKTEFSEENIEFWIACEDFKKSKGPQQIHLKAKAIYEKFIQTDAPKEVNLDFHTKEVITNSITQPTLHSFDAAQSRVYQLMEQDSYTRFLKSDIYLDLMEGRPQRPTNLRRRSRSFTCNE | soluble
23 | MFIPKSHTKLIYEYLFNEGVTVAKKDFNAKTHPNIEGVSNLEVIKTLKSLASRELVKEQFAWRHYYWYLTDAGILYLREYLALPAEIVPATIKTKPREIRVPHEDRAPRAAQGEKGDREAYRTEKVTEAGPGGAPVYRAGFGRGAPPPQ | not soluble
24 | MGSDKIHHHHHHVKFRVDRDAFADAVTWTARALPARPAVPVLAGMRLEVADTASDTLRLSGFDYEVSAQASVDVHAEEAGSVLVPGRLLAEIVRTLPPHPVEFHVEGSRALLTCGNARFTLLTLPLEDYPTLPAMPRTIGSAPADVFATAVRQVLPSTSRDDTLPMLTGVHLTFRGDTILLAATDRYRIAVREMWWKPEEVDIDTSALVPARTLGDFSRSLTGGNVDIALSTSDSRGAGEGMIGFEHDGKRTTTRLIDSDFVSYESRFPTEFAAQADVPVAPLAEAVKRVALVADRSTPVRLSFTSSEVVLEAGSGDDAQALEALEVNFEGEPMRIAFNPQYFLDGLTNVETERAFLRFVAPTRPAVITGTPAKEGGKPDFRYLVMPLRLA | not soluble
25 | MSKYNAKKVEYKGIVFDSKVECEYYQYLESNMNGTNYDHIEIQPKFELLPKLDKQRKIEYIADFALYLDDKLIEVIDIKGMPTEVAKLKAKIFRHKYRNIKLNWICKAPKYTGKTWITYEELIKARRERKREMK | not soluble
26 | MGSDKIHHHHHHMNSALYVGKVRHRRFTPVTHRFDYALFMALIDLDEIPALPHAGIALERFAPASFYRGDYLGGGDIKTKAQDRIAELTGERLTGKVLLLCQLRYLGCYFNPVNFYYLYDEHNQLRWLLAEVRNTPWNERHTYAVVPDGSTTVSKAFHVSPFNPMDMVYHWRLTPPVERLRIHIENHRQGREFDATLLLHRQPLTRAALRKQLWSLPLMTIKIACTIYWQALKLWIKRSPVYPHPQSGRKDNP | not soluble
